Measured values as given in patent US20060286609A1 (BIOCHECK, published 2006).

Assays:
[1] = biological target: Human Id1: Histidine (human) (UniProt P41134); experiment: sandwich ELISA, 5-3-coated wells, human Id1:His 10.0 ng/ml, detected with rabbit polyclonal B-5133-HRP
[2] = biological target: Human Id1: Histidine (human) (UniProt P41134); experiment: sandwich ELISA, 5-3-coated wells, human Id1:His 0.5 ng/ml, detected with rabbit polyclonal B-5133-HRP
[3] = biological target: Human Id1: Histidine (human) (UniProt P41134); experiment: sandwich ELISA, 5-3-coated wells, human Id1:His 2.5 ng/ml, detected with rabbit polyclonal B-5133-HRP
[4] = biological target: T1, Mouse Id1: Histidine (mouse, UniProt P20067-2 1-148); experiment: ELISA, coated antigen; relative to human Id1
T1 construct: E. coli fusion protein (vector pGW07); also called m-Id1-His; not shown: His-tag
T1 sequence: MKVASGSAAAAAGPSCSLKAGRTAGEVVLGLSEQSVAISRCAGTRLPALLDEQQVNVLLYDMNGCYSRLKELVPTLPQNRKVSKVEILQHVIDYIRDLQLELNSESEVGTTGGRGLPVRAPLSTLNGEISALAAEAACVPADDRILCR

[5] = biological target: T2, Mouse Id4: Histidine (mouse, UniProt P41139 1-161, limits assumed); experiment: ELISA, coated antigen; relative to human Id1
T2 construct: E. coli fusion protein (vector pGW07); also called m-Id4: His; not shown: His-tag
T2 sequence (looked up): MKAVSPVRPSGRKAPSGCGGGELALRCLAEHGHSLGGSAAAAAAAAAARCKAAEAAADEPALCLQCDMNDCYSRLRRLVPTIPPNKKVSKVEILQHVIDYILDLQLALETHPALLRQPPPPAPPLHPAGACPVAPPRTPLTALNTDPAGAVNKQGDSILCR

[6] = biological target: Human Id1: Histidine (human) (UniProt P41134); experiment: sandwich ELISA, 5-3-coated wells, human Id1:His 5.0 ng/ml, detected with rabbit polyclonal B-5133-HRP
[7] = biological target: T1, Mouse Id1: Histidine; experiment: ELISA, coated antigen; reference mouse Id1
[8] = biological target: T3, human Id1 protein (human, UniProt P41134 1-155); experiment: SPR (BIACORE 2000), antibody immobilized on CM5 chip, Id-1 as analyte, 1:1 Langmuir model
T3 construct: No tag stated; Western blots: endogenous in HeLa and other human cancer cell extracts; IHC: endogenous in human mammary tumor tissue
T3 sequence: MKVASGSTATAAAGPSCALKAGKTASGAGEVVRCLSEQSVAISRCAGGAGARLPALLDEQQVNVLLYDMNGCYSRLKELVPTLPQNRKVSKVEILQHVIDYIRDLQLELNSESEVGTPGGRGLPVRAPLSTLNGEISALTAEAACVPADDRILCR
Procedure: (§1) Antibodies were immobilized on CM5 sensor chips. All SPR (surface plasmon resonance) assays were carried out in a BIACORE 2000 instrument. A mouse monoclonal antibody was used as reference labeled at the 2nd channel (Fc2) of the chip. BCH-1#37-2 was immobilized on the 4th (Fc4) channel. Final conjugation of antibodies on chip surface was 1878 RU for BCH-1#37-2. Mouse Id-1 and human Id-1 were applied as mobile analytes. The binding assays were carried out in HBS-P buffer (10 mM HEPES, pH 7.4, containing 150 mM sodium chloride, 0.005% surfactant P-20 detergent and 0.12% glycerol). Kinetics were determined with 8 different analyte concentrations ranging from […] to 573 nM. For analyses, 125 μl of analyte were injected (Kinject protocol) at 30 μl/min and the dissociation lasted for 240 seconds at the same flow rate. The surface was regenerated by washing with 50 μl solution of 100 mM glycine and 100 mM of HCl, pH 1.81, at 60 μl/min and the extra cleaning protocol was followed. The kinetic analyses of sensograms were based on the Langmuir (1:1) binding model. Both association rate constant and dissociation rate constants for the interaction of mouse Id-1 and human Id-1 with the immobilized antibodies were determined from the analysis of sensograms using the Biaevaluation software, version 3.0. […]

[9] = biological target: T4, mouse Id1 protein (mouse, UniProt P20067-2 1-148); experiment: as above
T4 construct: No tag stated; Western blots: expressed in transfected HeLa cells (whole cell extract on SDS gel); IHC: endogenous in mouse mammary tumor tissue
T4 sequence: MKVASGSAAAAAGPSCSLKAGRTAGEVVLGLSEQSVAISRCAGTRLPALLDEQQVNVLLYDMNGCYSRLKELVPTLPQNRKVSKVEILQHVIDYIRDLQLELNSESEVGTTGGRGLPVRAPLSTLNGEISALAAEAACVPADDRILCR
Procedure: as §1

[10] = biological target: Human Id1: Histidine (human) (UniProt P41134); experiment: ELISA, coated antigen, Ab 0.25 ug/ml

“rabbit monoclonal anti-human Id1, clone #BCH-2/#5-3 (antibody)” gave an A450 [1] of 0.815 A450, an A450 [2] of 0.085 A450 and an A450 [3] of 0.244 A450. For the same molecule, the Cross-reactivity (%) [4] was < 1%, the Cross-reactivity (%) [5] was < 1% and the A450 [6] was 0.365 A450.

“rabbit monoclonal anti-mouse/human Id1, clone #BCH-1/#195-14 (antibody)” gave a Cross-reactivity (%) [7] of 100%.

B1: rabbit monoclonal anti-mouse Id1, clone #BCH-1/#37-2 (antibody, V domains shown)
VH: QSVEESGGRLVTPGTPLTLTCKVSGFDINSYAMDWFRQAPGKGLEWIGMMSTRGNTYYTSWAKGRFTISKTSSTTVDLKMTSLTTEDTATYFCARGGLWGPGTLVTVSS
VL: RVLTQTASPVSAAVGGTVTINCQASQSVYNGNRLGWYQLKPGQSPKELIHDASTLASGVPSRFRGSGSGTQFTLTINDVQCDDAATYYCVGSYACSTGDCNVFGGGTEVVVK
notes: Rabbit IgG from hybridoma, Protein G purified; also called m Id1 MoAb 37-2; Rabbit Monoclonal Anti-Mouse Id1 (#37-2)
Molecule B1 has a Ka [8] of 2.9e+09 M⁻¹, a Ka [9] of 2.9e+11 M⁻¹ and an A450 [10] of 0.07 A450.
